From patent US20050154189A1

Target: Soluble CD28-Ig (human), P10747
Test: two-colour FACS profile on transfected cells; score of preference for CD28-Ig over CTLA-4-Ig vs WT hB7-1

| Binder | Binding Score |
| --- | --- |
| Round 2 CD28A12-5 (ligand, not fully specified; X: residue not identified in the source; ends and bridges not checked; also: glycosylated, sites not given here) ITPKSVTKRVKETVMLSCDYNTSTEELTSLRIYWRKDSKMXLAILPGKVQVWPEYKNRTITDMNDNLRIVILALRLSDSGTYTCVIQKPDLKGAYKLEHLTSVRLMIRADFPVPTINDLGNPSPNIRRLICSTSGGFPRPHLYWLENGEELNATNTTVSQDPGTELYMISSELDFNVTNNHSIVCLIKYGELLVSQIFPWSKPKQEPPIDQLPFWVIIPVSGALVLTAVVLYCLACRHVARWKRTRRNEETVGTERLSPIYLGSAQSSG | 1 |
| Round 2 CD28A4-9 (ligand, not fully specified; X: residue not identified in the source; ends and bridges not checked) ITPKSVTKRVKETVMLSCDYNTSTEKLTSLRIYWQKDSKMVLAILPGKVQVWPEYKNRTITDMNDNPRIVILALRLSDSGTYTCVIQKPVLKGAYKLEHLTSVRLMIRADFPVPTINDLGNPSPNIRRLICSTSGGFPRPHLYWLENGEELNATNTTVSQDPETKLYMISSELDFNVTNNHSIVCLIKYGELSVSQIFPWSKPKQEPPIDQLPFWVIIPVSGALVLTAVVLYCPACRHVARWKRTRRNEETVGTERLSPIYLGSAQSRAEVPSLSX | 1 |
